Reference: the supplement of paper PMC10567573

B1: TRIM55 (parent)
chain: FQMEKIEHGYENMNHFTVNLNREE
B2: KLHL12 (parent)
chain: REESLPNLLQYVRMPLLTPRYITD

Variants of: B1
Assay: protein stability index of a GFP-peptide fusion (GPS, HEK-293T) (PSI 1-6); higher = more stable
Settings: c terminus: a fixed tail appended
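Further: lentivirally expressed fusions sorted by FACS into six bins by GFP to DsRed ratio, PSI derived from sequencing read proportions per bin multiplied by bin number.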

Protein stability index of substitutions, site by site:
E24: S 2.06 | P 2.37 | F 1.77 | N 2.33 | W 2.1 | R 3.3 | V 2.49 | Q 3 | L 3.02 | Y 1.57 | T 2.12 | I 1.98 | C 2.4 | M 1.57 | H 2.43 | G 1.97 | D 2.77 | K 2.57 | A 2.27
R22: Q 3.1 | V 2.56 | A 2.73 | P 2.99 | K 3.75 | T 2.99 | Y 2.31 | L 1.96 | M 2.44 | N 3.57 | W 2.59 | I 2.4 | H 2.64 | D 3.32 | S 3 | C 3.09 | F 1.98 | G 2.67 | E 3.77
E23: R 1.88 | T 1.92 | N 2.87 | F 1.88 | Y 2.23 | K 2.26 | D 3.09 | L 2.17 | P 2.29 | M 2.27 | Q 2.39 | V 2.62 | A 1.77 | S 2.67 | I 1.64 | G 2.28 | H 1.77 | C 1.67
N21: W 1.13 | F 2.07 | Y 2.5 | R 2.51 | T 2.65 | E 3.54 | Q 3.07 | P 2.94 | H 2.15 | M 2.1 | S 3.08 | K 2.87 | I 2.59 | D 3.65 | G 2.86 | L 2.2 | V 2.4

Variants of: B2
Assay: as above
Settings: c terminus: a fixed tail appended

Protein stability index of substitutions, site by site:
L8: N 3.22 | S 3.21 | D 3.75 | H 3.27 | A 3.24 | Y 2.67 | V 2.53 | T 3.12 | M 2.69 | I 2.41 | K 2.98 | W 2.12 | G 2.79 | Q 3.17 | R 2.98 | C 2.29 | F 2.4 | E 3 | P 3.18
Y11: S 3.33 | R 3.21 | D 3.96 | T 3.06 | F 2.92 | I 2.68 | L 2.09 | E 3.9 | V 2.51 | G 3.52 | A 2.76 | C 2.82 | H 2.88 | W 1.96 | Q 3.42 | M 2.34 | P 3.56 | N 3.47 | K 2.87
R13: S 1.52 | F 2.06 | A 1.49 | Q 2.31 | G 1.76 | P 2.97 | E 2.84 | L 3.6 | H 2.38 | N 2.58 | K 2.67 | M 2.07 | T 1.64 | W 2.84 | Y 2.53 | C 3.21 | V 2.66 | D 2.48
Q10: F 2.22 | H 2.25 | S 2.33 | G 2.45 | D 2.06 | I 4.07 | W 1.17 | R 3.13 | M 1.56 | Y 2.16 | T 2.28 | K 2.38 | L 2.27 | A 2.47 | C 2.39 | N 2.05 | E 2.41 | P 2.79
E3: C 2.5 | M 1.9 | V 2.45 | K 2.78 | I 2.02 | Y 1.71 | Q 2.72 | W 2.02 | D 2.2 | H 2.23 | A 2.54 | N 2.42 | L 2.11 | S 2.14 | R 2.83 | F 1.95 | T 2.67 | G 2.56 | P 2.19
N7: M 2.03 | K 2.73 | R 2.3 | A 2.64 | G 2.63 | E 2.34 | V 2.07 | Q 2.65 | D 2.93 | S 2.26 | F 2.23 | T 2.1 | C 2.35 | Y 1.71 | W 3.17 | P 3.19 | L 2.01 | I 1.9 | H 2.44
S4: C 2.71 | V 1.82 | M 2.21 | K 2.41 | A 2.65 | D 2.56 | G 2.69 | Q 2.51 | P 2.79 | L 1.89 | N 1.93 | F 2.15 | H 2.51 | E 2.72 | R 2.5 | I 2.16 | Y 2.45 | T 2.34 | W 1.9
R1: K 2.52 | Q 2.31 | H 2.18 | T 2.19 | D 2.63 | E 2.8 | C 1.96 | I 1.83 | M 2.25 | F 2.43 | V 2.35 | Y 1.82 | A 2.23 | W 1.61 | S 2.7 | G 2.23 | L 2.83 | P 2.16 | N 2.72
L9: V 2.51 | M 2.44 | D 3.1 | R 3.14 | G 3.03 | A 2.97 | F 2.27 | S 3.36 | I 2.32 | Q 3.77 | W 2.49 | E 3.23 | H 3.29 | P 3.07 | K 2.57 | T 3.45 | N 3.61 | Y 2.62 | C 3.33
M14: C 2.02 | S 3.13 | I 2.56 | A 2.42 | L 2.35 | D 3.17 | E 3.52 | P 3.36 | R 2.68 | Q 2.88 | N 2.4 | H 2.89 | K 3.46 | F 2.09 | T 2.97 | G 3.11
P6: M 2.11 | A 2.66 | H 2.13 | F 1.93 | C 2.05 | R 2.59 | Y 2.58 | S 2.31 | T 2.13 | L 2 | D 2.51 | K 1.71 | W 2.11 | E 2.15 | Q 1.91 | G 2.28 | V 1.6 | N 2.45 | I 1.95
L5: R 2.52 | Q 2.81 | D 3.15 | K 2.65 | F 2.16 | M 2.9 | G 2.67 | T 2.79 | W 2.21 | Y 2.61 | S 2.8 | E 3.4 | A 3.47 | N 2.52 | H 2.51 | P 2.75 | V 2.59 | I 1.83 | C 2.79
V12: E 3.85 | M 2.33 | N 3.1 | Q 3.07 | K 2.81 | P 3.45 | D 3.7 | H 2.74 | L 1.86 | G 2.91 | C 1.98 | W 1.81 | T 3.01 | F 1.86 | A 3.16 | R 3 | S 3.16 | Y 2.6 | I 2.77
E2: A 3.56 | Q 2.53 | M 2.4 | V 2.63 | C 3.52 | L 2.47 | K 2.31 | S 3.42 | T 3.35 | I 2.5 | W 3.14 | D 2.38 | P 2.56 | N 2.51 | Y 2.83 | R 2.85 | H 2.92 | G 3.19 | F 2.4
